Consider one substance from article PMC8279004.

For test [1], the target named is H4K16ac nucleosome (Xenopus | not stated). Briefly: native gel or EMSA. In general terms: Mobility shift assays separate free from complexed probe on a gel.
Test [2] deals with unmodified nucleosome (Xenopus). Nature of the test: native gel or EMSA.

For the substance “catalytic domain of yeast Dot1 (residues 158 to 582) (from UniProt Q04089 158-582) (domain or fragment)”, the Kd (commonly the equilibrium constant for the complex coming apart) was 83.3 nM in test [1] and 70.8 nM in test [2].
